These results are taken from article PMC8789055, “Structural and biochemical characterization of human Schlafen 5”.

The target in data set [1] is T1, SLFN5 1-336 (Schlafen core domain) (Homo sapiens, UniProt Q08AF3 1-336).
T1 sequence: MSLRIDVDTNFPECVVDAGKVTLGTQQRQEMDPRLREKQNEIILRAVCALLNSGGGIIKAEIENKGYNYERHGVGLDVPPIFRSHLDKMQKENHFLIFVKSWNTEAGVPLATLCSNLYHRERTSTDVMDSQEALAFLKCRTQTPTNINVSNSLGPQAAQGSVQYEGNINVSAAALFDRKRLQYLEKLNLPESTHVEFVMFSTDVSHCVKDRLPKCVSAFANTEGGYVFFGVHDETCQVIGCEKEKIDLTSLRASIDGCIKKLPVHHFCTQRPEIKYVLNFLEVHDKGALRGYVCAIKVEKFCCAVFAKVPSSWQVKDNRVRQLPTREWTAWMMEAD
Nature of the data set: fluorescence anisotropy; FA: 2x buffer 100 mM HEPES pH 8.0, 100 mM NaCl mixed 1:1 with 100 nM (final) FAM ligand, 30 min on ice; EMSA: 25 mM HEPES pH 7.0, 60 mM NaCl, 5% glycerol, 2 mM. Particulars: protein: recombinant, tags: C-terminal His6. Background: Fluorescence polarisation rises when a labelled molecule tumbles more slowly, as on binding a larger partner.

The target of data set [2] is T2, SLFN5 full length (Homo sapiens, UniProt Q08AF3 1-891).
T2 sequence: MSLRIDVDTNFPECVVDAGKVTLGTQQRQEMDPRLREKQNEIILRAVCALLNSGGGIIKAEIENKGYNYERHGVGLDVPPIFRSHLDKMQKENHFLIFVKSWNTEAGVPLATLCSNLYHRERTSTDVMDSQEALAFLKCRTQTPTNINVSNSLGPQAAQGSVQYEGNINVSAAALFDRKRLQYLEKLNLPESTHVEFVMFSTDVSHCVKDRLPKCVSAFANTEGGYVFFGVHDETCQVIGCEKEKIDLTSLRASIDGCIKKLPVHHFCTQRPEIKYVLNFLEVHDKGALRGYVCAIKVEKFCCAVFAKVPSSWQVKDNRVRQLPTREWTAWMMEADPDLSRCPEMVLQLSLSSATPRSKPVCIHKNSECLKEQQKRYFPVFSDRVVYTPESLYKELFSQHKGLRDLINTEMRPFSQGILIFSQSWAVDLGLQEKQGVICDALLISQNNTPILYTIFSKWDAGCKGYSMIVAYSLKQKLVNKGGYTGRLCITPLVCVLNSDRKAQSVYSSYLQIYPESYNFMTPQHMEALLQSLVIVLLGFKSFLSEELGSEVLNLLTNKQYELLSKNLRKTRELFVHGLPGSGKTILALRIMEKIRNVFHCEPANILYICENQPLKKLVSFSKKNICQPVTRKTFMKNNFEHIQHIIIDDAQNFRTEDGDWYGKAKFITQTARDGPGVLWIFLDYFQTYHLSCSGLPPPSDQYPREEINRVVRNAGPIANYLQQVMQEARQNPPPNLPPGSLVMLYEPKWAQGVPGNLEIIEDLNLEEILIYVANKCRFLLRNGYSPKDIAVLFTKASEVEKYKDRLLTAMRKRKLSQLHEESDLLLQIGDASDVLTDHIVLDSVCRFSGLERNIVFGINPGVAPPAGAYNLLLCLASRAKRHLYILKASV
Nature of the data set: competition EMSA; with tRNASer, 20 nM each; 196 bp DNA preferred; FA: 2x buffer 100 mM HEPES pH 8.0, 100 mM NaCl mixed 1:1 with 100 nM (final) FAM ligand, 30 min on ice; EMSA: 25 mM HEPES pH 7.0, 60 mM NaCl, 5% glycerol, 2 mM. The note with it: protein: recombinant; tags: N-terminal double FLAG, HRV 3C site; label: 5'-Cy5 (rev primer); blunt. In general terms: A gel shift assay detects complexes by their altered migration in electrophoresis.

Data set [3] concerns the target T2, SLFN5 full length. Nature of the data set: competition EMSA; with tRNASer, 20 nM each; comparable affinities; FA: 2x buffer 100 mM HEPES pH 8.0, 100 mM NaCl mixed 1:1 with 100 nM (final) FAM ligand, 30 min on ice; EMSA: 25 mM HEPES pH 7.0, 60 mM NaCl, 5% glycerol, 2 mM. The note with it: protein: recombinant; tags: N-terminal double FLAG, HRV 3C site; label: 5'-Cy5 (fwd); blunt.

B1: 60 dT (ssDNA)
DNA: TTTTTTTTTTTTTTTTTTTTTTTTTTTTTTTTTTTTTTTTTTTTTTTTTTTTTTTTTTTT
In general, Kd refers to the free concentration of one partner at which half of the binding sites on the other are occupied at equilibrium, for simple one-to-one binding. In the case of B1, the dissociation constant (Kd) in data set [1] (label: 5'-FAM) is 7.8 µM.

B2: 60 bp DNA (60bp_A/T_GC) (dsDNA)
DNA 1: TTTTTTTTTTTTTTTTTTTTTTTTTTTTTTTTTTTTTTTTTTTTTTTTTGCTTTTTTTTT
DNA 2: AAAAAAAAAGCAAAAAAAAAAAAAAAAAAAAAAAAAAAAAAAAAAAAAAAAAAAAAAAAA
As for B2, in data set [1] (label: 5'-FAM (fwd), blunt), the Kd came to 2.5 µM.

B3: 60 rU (ssRNA)
RNA: UUUUUUUUUGCUUUUUUUUUUUUUUUUUUUUUUUUUUUUUUUUUUUUUUUUUUUUUUUUU
With B3, the Kd in data set [1] (label: 5'-FAM) stood at 3.6 µM.

B4: 196 bp DNA (0N49) (dsDNA)
DNA 1: CTGGAGAATCCCGGTGCCGAGGCCGCTCAATTGGTCGTAGCAAGCTCTAGCACCGCTTAAACGCACGTACGCGCTGTCCCCCGCGTTTTAACCGCCAAGGGGATTACTCCCTAGTCTCCAGGCACGTGTCAGATATATACATCCTGTGCATGTATTGAACAGCGACCTTGCCGGTGCCAGTCGGATAGTGTTCCGA
DNA 2: TCGGAACACTATCCGACTGGCACCGGCAAGGTCGCTGTTCAATACATGCACAGGATGTATATATCTGACACGTGCCTGGAGACTAGGGAGTAATCCCCTTGGCGGTTAAAACGCGGGGGACAGCGCGTACGTGCGTTTAAGCGGTGCTAGAGCTTGCTACGACCAATTGAGCGGCCTCGGCACCGGGATTCTCCAG
On to B4, for which the binding result in data set [2] was “binds”.

B5: 50 bp DNA (dsDNA)
DNA 1: AATTGGTCGTAGCAAGCTCTAGCACCGCTTAAACGCACGTACGCGCTGTC
DNA 2: GACAGCGCGTACGTGCGTTTAAGCGGTGCTAGAGCTTGCTACGACCAATT
B5: the binding result in data set [3] is “binds”.
Consider TTTTTTTTTTTTTTTTTTTTTTTTTTTTTT (ssDNA) [30 dT], for which, in data set [1] (label: 5'-FAM), the dissociation constant Kd turned out to be 11 µM.

B6: tRNA(Ser) (structured_RNA)
RNA: GUAGUCGUGGCCGAGUGGUUAAGGCGAUGGACUUGAAAUCCAUUGUGGUUUCCCCGCGCAGGUUCGAAUCCUGCCGACUACGCCA
For the molecule B6, in data set [1] (label: 5'-FAM, tRNA fold), the equilibrium dissociation constant (Kd) was 4.3 µM.
As to UUUUUUUUUUUUUUUUUUUUUUUUUUUUUU (ssRNA) [30 rU], the equilibrium dissociation constant (Kd) in data set [1] (label: 5'-FAM) turned out to be 5.1 µM.
